One molecule from US20110135573A1, “METALLOPROTEINASE 9 AND METALLOPROTEINASE 2 BINDING PROTEINS” (DYAX CORP., priority 2009, published 2011) can be followed below.

One experiment addresses T1, mouse MMP-2 (Mus musculus, UniProt P33434).
T1 construct: purchased R&D Systems 924-MP-010
Briefly: Enzyme inhibition assay (single point inhibition, IC50/Ki,app), substrate M-2350. Format: biochemical. The method, then: (§1) 343 unique sFabs from the anti-MMP-9/-2 M237-D02 affinity maturation campaign were discovered by phage display, produced in small scale (6 mL cultures in deep 24-well plates) and screened to select inhibitors with sub-nanomolar potency against the human enzymes and at least single-digit nanomolar potency toward the mouse orthologues. […] Isolates which appeared potent against both human and mouse MMP-2 were then subjected to IC50 analysis against hMMP-9. Sub-nanomolar inhibitors of hMMP-9 were further tested by IC50 analysis against mMMP-9 and h/m MMP-2, if sufficient small-scale sFab material was available. Thirteen potential h/m MMP-9/-2 sFab inhibitors were then produced in medium scale (250 mL cultures in flasks) and retested for h/m MMP-9 and h/m MMP-2 inhibition. Five potential lead candidates were reformatted as IgGs and retested in enzyme inhibition assays.
(§2) Human MMP-9 (Biomol #SE-244), mouse MMP-9 (R&D Systems #909-MM-010), human MMP-2 (Biomol #SE-237) and mouse MMP-2 (R&D Systems #924-MP-010) were tested at final concentrations of 1 nM, 0.25-0.4 nM, 2.5 nM and 0.2 nM, respectively. Target enzymes were incubated with inhibitor for two hours at 30° C. in reaction buffer (50 mM Tris-HCl pH 7.5, 150 mM NaCl, 5 mM CaCl2, 0.05% Brij-35) in a total volume of 90 μL using a white 96 well plate (Costar). Reactions contained 5 μL of small-scale sFab stock solution (average concentration of 500 nM) for single point inhibition analysis or a concentration series of sFab/IgG for IC50 Ki,app determinations. Commercially available anti-MMP-9 antibodies (Millipore mAb 13415 and R&D Systems polyclonal IgG #AB911) were tested by IC50 analyses using 100 nM and 500 nM as the highest inhibitor concentrations, respectively. An anti-MMP-2 antibody (R&D Systems polyclonal IgG #AF902) was similarly tested with 200 nM as the highest inhibitor concentration. Reactions were initiated by the addition of 10 μL of a 10× concentrated stock of substrate, Mca-Lys-Pro-Leu-Gly-Leu-Dap(Dnp)-Ala-Arg-NH2, (Bachem M-2350), at final concentration of 10 μM and monitored at 30° C. in a Molecular Devices' Gemini fluorescence plate reader. The excitation and emission wavelengths were set at 328 nm and 393 nm, respectively. Kinetic data were acquired by the increase in fluorescence, and initial rates for each condition were plotted against the total inhibitor concentration. Reactions were performed in duplicates and all data replicates were plotted in a single graph and fit to the following equation^1:
(§3) Where A=initial rate observed at each inhibitor concentration; Ao=initial rate observed in the absence of inhibitor; Ainh=initial rate observed for the enzyme inhibitor complex; Inh=concentration of inhibitor; E=total enzyme concentration (treated as a floated parameter); and Ki,app=apparent equilibrium inhibition constant.

Another experiment addresses T2, human MMP-2 (Homo sapiens, UniProt P08253).
T2 construct: purchased Biomol SE-237
Described as above. Format: biochemical. The method, then: as §1, §2, §3

In experiment [1] the target is T3, Mouse MMP-9 (Mus musculus, UniProt P41245).
T3 construct: purchased R&D Systems 909-MM (909-MM-010)
The description is as above. Format: biochemical. The method, then:
as §1, §2, §3

Experiment [2] deals with carrageenan-stimulated mouse air pouch. The experiment is described as follows: Carrageenan-stimulated mouse air pouch, inflammatory cell infiltration. The format is in vivo. The conditions noted are these: FIG. 2. The source says: The purpose of the following experiments were to determine the effect of 539A-M0237-D02 on inflammation and specifically on inflammatory cell infiltration into the carrageenan-stimulated mouse air pouch and on the arthritic index in collagen-induced arthritis (CIA) mice.
For the carrageenan-stimulated mouse air pouch model, subcutaneous injection of air into the hind flank or back of mice produces an air pouch in a week, the interior surface of which contains both fibroblast-like and macrophage-like cells. Inflammatory stimulation of the pouch results in leukocyte recruitment to the pouch and release of mediators (cytokines) into the exudate. Preventing inflammatory cell infiltration into the air pouch may translate into preventing inflammation of the synovium in rheumatoid arthritis.
The effect of 539A-M0237-D02 on inflammatory cell infiltration was compared to inflammatory cell infiltration indomethacin and a control (PBS). In addition, inflammatory cell recruitment was compared to an unstimulated mouse.

For another experiment, the target named is MMP-9 (Homo sapiens, UniProt P14780). The experiment is described as follows: Enzyme inhibition assay (single point inhibition, IC50/Ki,app), substrate M-2350. Format: biochemical. The arrangement: Human MMP-9 catalytic domain (BIOMOL, SE-244); purchased BIOMOL SE-244. How it is done:
as §1
as §2, with “Commercially available anti-MMP-9 antibodies (Millipore mAb 13415 and R&D Systems polyclonal IgG #AB911) were tested by IC50 analyses using 100 nM and 500 nM as the highest inhibitor concentrations, respectively. An anti-MMP-2 antibody (R&D Systems polyclonal IgG #AF902) was similarly tested with 200 nM as the highest inhibitor concentration.” left out, “The excitation and emission wavelengths were set at 328 nm and 393 nm, respectively.” left out, “Reactions were performed in duplicates and all data replicates were plotted in a single graph and fit to the following equation^1:” left out

For experiment [3], the target named is T4, Human MMP-9 catalytic domain (Homo sapiens, UniProt P14780).
T4 construct: Human MMP-9 catalytic domain (BIOMOL, SE-244); purchased BIOMOL SE-244
The experiment is described as follows: Ki measurement and inhibition model, fluorogenic substrate Mca-KPLGL-Dap(Dnp)-AR-NH2. Format: biochemical. The conditions noted are these: fluorogenic peptide substrates. The method, then: (§4) This example characterized the interaction of the M0237-D02 hIgG1 with the human and mouse MMP-9. The Ki was measured and the inhibition mechanism was determined
(§5) Materials: • Substrate: Mca-KPLGL-Dap(Dnp)-AR-NH2 (M-2350) from BACHEM (521575). A 10 mM stock solution was prepared in DMSO. • Enzymes: • Human MMP-9 catalytic domain (BIOMOL, SE-244). Enzyme concentration was measured by titration with TIMP-1 (2522-104) • Mouse MMP-9 (R&D, 909-MM), APMA-activated. • M0237-D02 hIgG1: 2517-014. Dialysed against TCN. • TCNB: 50 mM Tris/HCl, 10 mM CaCl2, 150 mM NaC, […], pH 7.5. • -96-well black plates from Perkin Elmer (6005270) • Spectramax M2e to measure fluorescence emission of the substrate upon hydrolysis (temperature control set at 30° C.; λexc=328 nm and λem=393 nm)
(§6) The enzyme (final concentration=0.23 and 0.17 nM for the human and mouse MMP-9, respectively) was preincubated with various concentrations (0-50 nM) of M0237-D02 for 1 h at 30° C. The substrate was then added to a final concentration ranging from 5 to 40 μM and initial rates were recorded.
(§7) Each data point was measured in triplicate, and initial rates were averaged.
(§8) Averaged initial rates were plotted against the M0237-D02 concentration for each substrate concentration, and IC50's were calculated using the following equation: […]
(§9) The IC50 values were then plotted against the substrate concentration.

Experiment [4] deals with T3, Mouse MMP-9. The experiment is described as above. Particulars: fluorogenic peptide substrates. The format is biochemical. The method, then: as §4, §5, §6, §7, §8, §9

T1 sequence (P33434 110-662): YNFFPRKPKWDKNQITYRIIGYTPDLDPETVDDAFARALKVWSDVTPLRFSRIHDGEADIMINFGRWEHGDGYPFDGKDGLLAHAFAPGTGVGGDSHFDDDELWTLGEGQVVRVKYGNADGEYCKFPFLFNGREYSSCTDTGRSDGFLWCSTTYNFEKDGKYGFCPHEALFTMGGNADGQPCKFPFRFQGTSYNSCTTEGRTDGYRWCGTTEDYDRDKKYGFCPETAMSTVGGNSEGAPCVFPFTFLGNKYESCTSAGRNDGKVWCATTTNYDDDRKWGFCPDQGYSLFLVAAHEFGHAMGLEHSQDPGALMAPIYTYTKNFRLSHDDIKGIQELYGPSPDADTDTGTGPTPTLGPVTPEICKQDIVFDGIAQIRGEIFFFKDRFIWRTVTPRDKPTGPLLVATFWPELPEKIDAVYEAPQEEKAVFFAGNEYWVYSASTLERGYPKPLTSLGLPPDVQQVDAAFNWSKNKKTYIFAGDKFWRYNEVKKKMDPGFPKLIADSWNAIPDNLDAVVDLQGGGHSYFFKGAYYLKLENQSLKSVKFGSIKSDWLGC
T3 sequence (P41245 108-730): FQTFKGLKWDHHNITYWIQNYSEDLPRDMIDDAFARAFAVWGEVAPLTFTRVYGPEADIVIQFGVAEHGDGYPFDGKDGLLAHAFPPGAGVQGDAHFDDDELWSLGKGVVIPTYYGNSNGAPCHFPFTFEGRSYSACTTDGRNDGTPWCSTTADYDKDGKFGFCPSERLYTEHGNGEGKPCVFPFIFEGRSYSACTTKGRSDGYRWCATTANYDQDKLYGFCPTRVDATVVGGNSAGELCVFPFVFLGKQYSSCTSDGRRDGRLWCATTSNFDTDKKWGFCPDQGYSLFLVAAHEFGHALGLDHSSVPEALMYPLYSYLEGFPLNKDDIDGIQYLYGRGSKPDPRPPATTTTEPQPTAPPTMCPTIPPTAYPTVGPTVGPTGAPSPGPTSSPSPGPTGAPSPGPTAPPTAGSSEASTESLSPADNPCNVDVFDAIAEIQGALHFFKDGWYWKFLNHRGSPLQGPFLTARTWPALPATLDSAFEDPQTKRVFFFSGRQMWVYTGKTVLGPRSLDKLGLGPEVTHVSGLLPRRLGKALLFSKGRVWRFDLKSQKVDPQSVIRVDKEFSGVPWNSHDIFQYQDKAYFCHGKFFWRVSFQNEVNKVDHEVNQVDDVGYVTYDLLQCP
T2 sequence (P08253 110-446 limits assumed): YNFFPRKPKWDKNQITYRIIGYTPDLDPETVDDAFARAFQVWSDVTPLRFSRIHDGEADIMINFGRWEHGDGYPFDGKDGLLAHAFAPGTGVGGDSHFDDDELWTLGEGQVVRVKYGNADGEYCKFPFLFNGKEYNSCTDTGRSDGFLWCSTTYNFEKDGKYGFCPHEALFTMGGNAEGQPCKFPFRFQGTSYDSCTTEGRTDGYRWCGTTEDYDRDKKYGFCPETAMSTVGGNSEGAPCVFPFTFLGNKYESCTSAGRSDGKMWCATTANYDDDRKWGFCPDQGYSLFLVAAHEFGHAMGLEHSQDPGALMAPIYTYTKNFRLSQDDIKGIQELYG
T4 sequence (P14780 107-444 limits assumed): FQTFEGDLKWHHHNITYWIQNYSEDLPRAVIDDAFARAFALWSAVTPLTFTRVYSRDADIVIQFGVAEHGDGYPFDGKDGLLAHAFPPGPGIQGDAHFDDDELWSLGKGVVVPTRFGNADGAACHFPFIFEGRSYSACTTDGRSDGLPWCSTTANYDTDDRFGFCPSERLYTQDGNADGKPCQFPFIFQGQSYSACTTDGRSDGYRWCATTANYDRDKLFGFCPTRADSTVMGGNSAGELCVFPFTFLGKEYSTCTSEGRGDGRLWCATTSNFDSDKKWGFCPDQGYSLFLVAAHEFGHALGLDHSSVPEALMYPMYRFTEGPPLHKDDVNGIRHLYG
Sequence of MMP-9 (P14780 107-444 limits assumed): as above

B1: M0237-D02: MMP-9/-2 dual reactive antibody inhibitor (parental); sFab and hIgG1 (antibody, V domains shown)
VH: EVQLLESGGGLVQPGGSLRLSCAASGFTFSQYPMWWVRQAPGKGLEWVSYIVPSGGRTYYADSVKGRFTISRDNSKNTLYLQMNSLRAEDTAVYYCAKDRAYGDYVGWNGFDYWGQGTLVTVSS
VL: DIQMTQSPATLSLSPGERATLSCRASQSISSFLAWYQQKPGQAPRLLIYDASYRATGIPARFSGSGSGTDFTLTISSLEPEDYAVYYCQQRGNWPITFGQGTRLEIK
Regarding B1, the “affinity for mMMP-2 (in words)” value in the experiment with mouse MMP-2 is on record as “low affinity”. Further, in the experiment with mouse MMP-2 (IgG, Table 12), the Ki turned out to be 76 nM. For the same molecule, in the experiment with human MMP-2, the “affinity for hMMP-2 (in words)” value is given as “high affinity”. Also, the “affinity for mMMP-9 (in words)” value with Mouse MMP-9 [1] was “high affinity”. In experiment [2], the lymphocyte infiltration entry is “significantly decreased”, the neutrophil infiltration entry is listed as “significantly decreased” and the “total white blood cell infiltration” value is listed as “significantly decreased”. Also, the “affinity for hMMP-9 (in words)” value with MMP-9 is given as “high affinity”. Also, the inhibition model entry in experiment [3] is “non competitive inhibitor”. Moreover, the inhibition model result with Mouse MMP-9 [4] was “non competitive inhibitor”.
